The values that follow come from patent US20240247301A1, “DIAGNOSTIC ASSAY FOR CLASSIC INBORN GALACTOSEMIA” (Ohio State Innovation Foundation, priority 2022, published 2024).

Series [1] is described as follows: Duarte GalT-YidA coupled assay (malachite green). The class given is biochemical. As to conditions: recombinant Duarte GalT, substrate Gal-1-P. The protocol: The assay contained 25 mM 4-(2-hydroxyethyl)-1-piperazineethanesulfonic acid (HEPES) (pH 8.0), 3 mM MgCl2, 2 mM DTT, 1 mM UDP-glucose (Sigma-Aldrich), 3 mM YidA, and varying amounts of His6-tagged Duarte GalT: 0.25 mM GalT for ≤0.1-mM Gal-1P, and 0.1 mM GalT for ≥0.1-mM Gal-1P (Table 3). […] These 2-μL aliquots were added to a 384-well plate which were pre-dispensed to test wells 18 μL of water and 5 μL of malachite green reagent. […] These specific time courses (using four time points; Table 3) and the appropriate dilutions were performed to maintain product formation in the linear range. To determine the Km and kcat values, the initial velocity calculated at each substrate concentration was subject to the Michaelis-Menten curve-fitting option in Kaleidagraph (Synergy Software).

The conditions of series [2]: Duarte GalT variant; cited from earlier work.
For series [3] the following is noted: earlier qualitative observation (Kuznetsova et al. 2006); cited from earlier work.
A short description of series [4]: YidA substrate-specificity test, initial velocity for Glc-1-P versus Gal-1-P. The class given is biochemical, Salmonella. The conditions noted are these: 3 mM Glc-1-P or 3 mM Gal-1-P, 3 mM MgCl2. An excerpt:
FIGS. 1A-B show substrate-recognition bias of YidA for Glc-1-P over Gal-1P. […] The data represent mean±standard error determined from two independent trials. […] The Km and kcat values listed represent the mean±standard error from two independent trials.
Nearly homogeneous recombinant Salmonella YidA by overexpressing it in E. coli SixPack cells were obtained (Lipinszki et al. 2018) (FIG. 3A). N-terminal fusions with a small ubiquitin-like modifier (SUMO) domain were engineered to enhance solubility (Marblestone et al. 2006) and a His6 tag to facilitate affinity purification (FIG. 3A). To measure the phosphatase activity of YidA, malachite green, a cationic dye that forms with free orthophosphate and molybdate a green-colored complex (Abs620) was used; this assay can measure nanomolar concentrations of orthophosphate (FIG. 4). Since YidA is a Mg^2+-dependent phosphatase, its activity with Glc-1-P in the presence of 0-5 mM MgCl2 was first tested and determined that 3 mM MgCl2 was optimal (FIG. 5).

The nature of series [5]: YihX kinetic studies (malachite green phosphate assay). The class given is biochemical, Salmonella. The conditions noted are these: Glc 1-P versus 6-P-F-Asp. An excerpt: Top panel reproduced from Monroy, et al., 2013.
The Km and kcat values are listed here with their respective curve-fit errors (see summary in Table 4).
Salmonella YihX was purified after overexpression in E. coli BL21 (DE3) pLysS cells. His6-YihX was purified under denaturing conditions using immobilized metal-affinity chromatography. Following purification, YihX was refolded by stepdown dialysis to remove the denaturant. […] YihX offers the basis for a simpler and more sensitive assay to diagnose classic galactosemia.

Bounds are passed on as bounds.

B1: Duarte GalT: recombinant His6-tagged Duarte variant of galactose-1-phosphate uridylyl transferase, clone from Addgene (GALTA-c001) (protein, UniProt P07902 1-379, looked up, variant N314D)
Galactose-1-phosphate …: MSRSGTDPQQRQQASEADAAAATFRANDHQHIRYNPLQDEWVLVSAHRMKRPWQGQVEPQLLKTVPRHDPLNPLCPGAIRANGEVNPQYDSTFLFDNDFPALQPDAPSPGPSDHPLFQAKSARGVCKVMCFHPWSDVTLPLMSVPEIRAVVDAWASVTEELGAQYPWVQIFENKGAMMGCSNPHPHCQVWASSFLPDIAQREERSQQAYKSQHGEPLLMEYSRQELLRKERLVLTSEHWLVLVPFWATWPYQTLLLPRRHVRRLPELTPAERDDLASIMKKLLTKYDNLFETSFPYSMGWHGAPTGSEAGANWDHWQLHAHYYPPLLRSATVRKFMVGYEMLAQAQRDLTPEQAAERLRALPEVHYHLGQKDRETATIA
With B1, in series [1], the “increase in kcat/Km, YidA-based assay versus PGM-G6PDH coupled assay” value is roughly 2.5 fold. Further, the “activity relative to wild-type GalT” value in series [2] was roughly 25%.

B2: E. coli YidA: E. coli YidA phosphatase documented in a previous study (Kuznetsova et al. 2006) (protein, UniProt P0A8Y5 1-270, looked up)
Sugar phosphatase YidA: MAIKLIAIDMDGTLLLPDHTISPAVKNAIAAARARGVNVVLTTGRPYAGVHNYLKELHMEQPGDYCITYNGALVQKAADGSTVAQTALSYDDYRFLEKLSREVGSHFHALDRTTLYTANRDISYYTVHESFVATIPLVFCEAEKMDPNTQFLKVMMIDEPAILDQAIARIPQEVKEKYTVLKSAPYFLEILDKRVNKGTGVKSLADVLGIKPEEIMAIGDQENDIAMIEYAGVGVAMDNAIPSVKEVANFVTKSNLEDGVAFAIEKYVLN
B2: the “dephosphorylation of Gal-1-P compared to Glc-1-P (qualitative)” value in series [3] was “negligible dephosphorylation of Gal-1-P compared to Glc-1-P”.

B3: YidA: recombinant Salmonella sugar-phosphate phosphatase of the HAD superfamily, overexpressed in E. coli SixPack cells; SUMO tag removed unless stated (protein, listed as Salmonella typhimurium)
chain: MAIKLIAIDMDGTLLLPDHTISPAVKNAIAAAREKGVNVVLTTGRPYAGVHSYLKELHMEQPGDYCITYNGALVQKAGDGSTVAQTALSYDDYRYLEKLSREVGSHFHALDRNTLYTANRDISYYTVHESYVATIPLVFCEAEKMDPNTQFLKVMMIDEPAVLDRAIARIPAEVKEKYTVLKSAPYFLEILDKRVNKGTGVKSLVEALGIKPEEVMAIGDQENDIAMIEYAGMGVAMDNAIPSVKEVANFVTKSNLEDGVAWAIEKFVLNPDHSSGHFPAR
modifications: Description of sequence: YidA
notes: recombinant Salmonella sugar-phosphate phosphatase of the HAD superfamily, overexpressed in E. coli SixPack cells; SUMO tag removed unless stated
On to B3, for which the “preference for Glc-1-P over Gal-1-P (initial velocity)” value in series [4] is no less than 40 fold.

B4: YihX: recombinant Salmonella HAD-like sugar-phosphate phosphatase, overexpressed in E. coli BL21 (DE3) pLysS cells and refolded (protein, listed as Salmonella typhimurium)
chain: MLYIFDLGNVIVDIDFNRVLGVWSDLSRVPLASLKQKFTMGETFHQHERGEITDEAFAEAFCHEMALSLSYEQFAHGWQAVFVGLRPEVIAIMHKLREQGHRVVVLSNTNRLHTHFWPEEYPEVRAAADHIYLSQDLGMRKPEARIYQHVLQKEGFSAADAVFFDDNADNIEGANQLGITSILVKDKATIPDYFAKLLC
modifications: Description of sequence: YihX
With B4, in series [5], the “substrate hydrolysis (qualitative)” value is recorded as “hydrolyzes glucose 1-phosphate (Glc 1-P) but not 6-P-F-Asp”.
